# Experimental data as given in paper PMC4769027 (Journal of structural biology, 2016).
# B1: FcγRIIa H131 variant ectodomain (receptor, human, UniProt P12318 34-211, looked up)
# chain: QAAAPPKAVLKLEPPWINVLQEDSVTLTCQGARSPESDSIQWFHNGNLIPTHTQPSYRFKANNNDSGEYTCQTGQTSLSDPVHLTVLSEWLVLQTPHLEFQEGETIMLRCHSWKDKPLVKVTFFQNGKSQKFSHLDPTFSIPQANHSHSGDYHCTGNIGYTLFSSKPVTITVQVPSMG
# B2: FcγRIIb ectodomain (receptor, human, UniProt P31994 43-217, looked up)
# chain: TPAAPPKAVLKLEPQWINVLQEDSVTLTCRGTHSPESDSIQWFHNGNLIPTHTQPSYRFKANNNDSGEYTCQTGQTSLSDPVHLTVLSEWLVLQTPHLEFQEGETIVLRCHSWKDKPLVKVTFFQNGKSKKFSRSDPNFSIPQANHSHSGDYHCTGNIGYTLYSSKPVTITVQAP
# Biological target: wild-type IgG1 Fc (human, UniProt P01857 108-328 = IgG part, N-linked glycan at Asn297)
# Test: SPR
binder,measurement,value
B1,Kd,4.49 µM
B2,Kd,9.28 µM
